Experimental data published in publication PMC4937415, “Peroxiredoxin 1 interacts with and blocks the redox factor APE1 from activating interleukin-8 expression” (Scientific Reports, 2016).

Biological target: the molecule itself
Test: SEC; as a6, but HeLa cells treated with 20 μM E3330 for 4 h; fractions 23 to 28 probed with anti-PRDX1

B1: Peroxiredoxin 1 (PRDX1) (natural protein, human (endogenous in HeLaS and HeLa), UniProt Q06830 1-199, looked up)
chain: MSSGNAKIGHPAPNFKATAVMPDGQFKDISLSDYKGKYVVFFFYPLDFTFVCPTEIIAFSDRAEEFKKLNCQVIGASVDSHFCHLAWVNTPKKQGGLGPMNIPLVSDPKRTIAQDYGVLKADEGISFRGLFIIDDKGILRQITVNDLPVGRSVDETLRLVQAFQFTDKHGEVCPAGWKPGSDTIKPDVQKSKEYFSKQK
notes: endogenous PRDX1 of HeLaS and HeLa cells; monomer 22 kDa, dimeric form 44 kDa on blots; source: endogenous, HeLaS nuclear, cytosolic and total extracts; endogenous, HeLa nuclear extract
With B1 the “stoichiometry N” value was 2.
